Experimental data taken from patent US20020098560.

Legend:
[1] = system: Recombinant TFPI-2 (novel human Kunitz-type inhibitor encoded by clone J-2-11, expressed in BHK570 cells and purified from conditioned medium)
[2] = target: T1, Recombinant TFPI-2 (novel human Kunitz-type inhibitor encoded by clone J-2-11, expressed in BHK570 cells and purified from conditioned medium)
T1 chain: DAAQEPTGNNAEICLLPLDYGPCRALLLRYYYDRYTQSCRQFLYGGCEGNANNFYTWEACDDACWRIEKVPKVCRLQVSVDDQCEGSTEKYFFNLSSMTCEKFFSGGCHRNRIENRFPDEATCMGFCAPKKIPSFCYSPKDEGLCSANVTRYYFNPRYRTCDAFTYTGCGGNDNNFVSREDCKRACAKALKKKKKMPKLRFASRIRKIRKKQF

Human factor Xa
amidolytic activity of 20 nM factor Xa towards chromogenic substrate S-2222 (absorbance at 405 nm) [1]: Recombinant TFPI-2 was shown to weakly inhibit the amidolytic activity of 20 nM factor Xa towards the chromogenic substrate S-2222 in a dose-dependent manner.

Human thrombin
amidolytic activity of human thrombin towards chromogenic substrate S-2238 (absorbance at 405 nm) [1]: Recombinant TFPI-2 was shown to have no effect on the amidolytic activity of human thrombin towards S-2238.

B1: Human factor VIIa/tissue factor complex (recombinant human factor VIIa with recombinant, truncated, human tissue factor apoprotein TF1-219) (protein)
chain 1: ANAFLEELRPGSLERECKEEQCSFEEAREIFKDAERTKLFWISYSDGDQCASSPCQNGGSCKDQLQSYICFCLPAFEGRNCETHKDDQLICVNENGGCEQYCSDHTGTKRSCRCHEGYSLLADGVSCTPTVEYPCGKIPILEKRNASKPQGRIVGGKVCPKGECPWQVLLLVNGAQLCGGTLINTIWVVSAAHCFDKIKNWRNLIAVLGEHDLSEHDGDEQSRRVAQVIIPSTYVPGTTNHDIALLRLHQPVVLTDHVVPLCLPERTFSERTLAFVRFSLVSGWGQLLDRGATALELMVLNVPRLMTQDCLQQSRKVGDSPNITEYMFCAGYSDGSKDSCKGDSGGPHATHYRGTWYLTGIVSWGQGCATVGHFGVYTRVSQYIEWLQKLMRSEPRPGVLLRAPFP
chain 2: SGTTNTVAAYNLTWKSTNFKTILEWEPKPVNQVYTVQISTKSGDWKSKCFYTTDTECDLTDEIVKDVKQTYLARVFSYPAGNVESTGSAGEPLYENSPEFTPYLETNLGQPTIQSFEQVGTKVNVTVEDERTLVRRNNTFLSLRDVFGKDLIYTLYYWKSSSSGKKTAKTNTNEFLIDVDKGENYCFSVQAVIPSRTVNRKSTDSPVECMGQEKGEFRE
amidolytic activity of 20 nM factor VIIa-tissue factor towards chromogenic substrate S-2288 (absorbance at 405 nm) [2]: Recombinant TFPI-2 was shown to inhibit the amidolytic activity of 20 nM factor VIIa-tissue factor towards the chromogenic substrate S-2288 in a dose-dependent manner.
